Experimental data reported in IntAct's records for PubMed 31515488.

B1: Transmembrane protein 79 (Homo sapiens), Q9BSE2 (parent)
chain: MTEQETLALLEVKRSDSPEKSSPQALVPNGRQPEGEGGAESPGAESLRVGSSAGSPTAIEGAEDGLDSTVSEAATLPWGTGPQPSAPFPDPPGWRDIEPEPPESEPLTKLEELPEDDANLLPEKAARAFVPIDLQCIERQPQEDLIVRCEAGEGECRTFMPPRVTHPDPTERKWAEAVVRPPGCSCGGCGSCGDREWLRAVASVGAALILFPCLLYGAYAFLPFDVPRLPTMSSRLIYTLRCGVFATFPIVLGILVYGLSLLCFSALRPFGEPRREVEIHRRYVAQSVQLFILYFFNLAVLSTYLPQDTLKLLPLLTGLFAVSRLIYWLTFAVGRSFRGFGYGLTFLPLLSMLMWNLYYMFVVEPERMLTATESRLDYPDHARSASDYRPRPWG
B2: Fructose-1,6-bisphosphatase 1 (Homo sapiens), P09467 (parent)
chain: MADQAPFDTDVNTLTRFVMEEGRKARGTGELTQLLNSLCTAVKAISSAVRKAGIAHLYGIAGSTNVTGDQVKKLDVLSNDLVMNMLKSSFATCVLVSEEDKHAIIVEPEKRGKYVVCFDPLDGSSNIDCLVSVGTIFGIYRKKSTDEPSEKDALQPGRNLVAAGYALYGSATMLVLAMDCGVNCFMLDPAIGEFILVDKDVKIKKKGKIYSLNEGYARDFDPAVTEYIQRKKFPPDNSAPYGARYVGSMVADVHRTLVYGGIFLYPANKKSPNGKLRLLYECNPMAYVMEKAGGMATTGKEAVLDVIPTDIHQRAPVILGSPDDVLEFLKVYEKHSAQ
partner: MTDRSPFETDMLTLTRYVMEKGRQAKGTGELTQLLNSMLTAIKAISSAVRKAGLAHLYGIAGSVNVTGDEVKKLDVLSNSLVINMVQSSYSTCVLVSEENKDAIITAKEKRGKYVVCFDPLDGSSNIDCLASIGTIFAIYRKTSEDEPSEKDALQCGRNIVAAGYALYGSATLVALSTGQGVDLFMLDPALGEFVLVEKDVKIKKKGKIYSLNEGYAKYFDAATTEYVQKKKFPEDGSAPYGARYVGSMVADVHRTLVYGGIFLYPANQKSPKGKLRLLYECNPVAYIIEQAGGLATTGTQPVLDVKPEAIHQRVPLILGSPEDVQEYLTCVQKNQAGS
B3: Isoform Long of Autophagy protein 5 (Homo sapiens), Q9H1Y0-1 (parent)
chain: MTDDKDVLRDVWFGRIPTCFTLYQDEITEREAEPYYLLLPRVSYLTLVTDKVKKHFQKVMRQEDISEIWFEYEGTPLKWHYPIGLLFDLLASSSALPWNITVHFKSFPEKDLLHCPSKDAIEAHFMSCMKEADALKHKSQVINEMQKKDHKQLWMGLQNDRFDQFWAINRKLMEYPAEENGFRYIPFRIYQTTTERPFIQKLFRPVAADGQLHTLGDLLKEVCPSAIDPEDGEKKNQVMIHGIEPMLETPLQWLSEHLSYPDNFLHISIIPQPTD
partner: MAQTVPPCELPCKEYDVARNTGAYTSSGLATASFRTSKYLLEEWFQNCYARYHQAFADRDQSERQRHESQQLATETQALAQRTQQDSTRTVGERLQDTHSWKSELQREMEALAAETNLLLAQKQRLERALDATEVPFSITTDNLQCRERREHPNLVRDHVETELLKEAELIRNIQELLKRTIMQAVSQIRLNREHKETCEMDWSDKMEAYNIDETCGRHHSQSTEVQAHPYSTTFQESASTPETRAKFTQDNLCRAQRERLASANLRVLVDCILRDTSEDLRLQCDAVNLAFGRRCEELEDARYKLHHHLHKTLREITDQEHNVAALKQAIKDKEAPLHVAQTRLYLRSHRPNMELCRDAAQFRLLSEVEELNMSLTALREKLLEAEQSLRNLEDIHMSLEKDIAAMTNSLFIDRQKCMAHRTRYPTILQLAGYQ
B4: Actin filament-associated protein 1-like 1 (Homo sapiens), Q8TED9 (parent)
chain: MDRGQVLEQLLPELTGLLSLLDHEYLSDTTLEKKMAVASILQSLQPLPAKEVSYLYVNTADLHSGPSFVESLFEEFDCDLSDLRDMPEDDGEPSKGASPELAKSPRLRNAADLPPPLPNKPPPEDYYEEALPLGPGKSPEYISSHNGCSPSHSIVDGYYEDADSSYPATRVNGELKSSYNDSDAMSSSYESYDEEEEEGKSPQPRHQWPSEEASMHLVRECRICAFLLRKKRFGQWAKQLTVIREDQLLCYKSSKDRQPHLRLALDTCSIIYVPKDSRHKRHELRFTQGATEVLVLALQSREQAEEWLKVIREVSKPVGGAEGVEVPRSPVLLCKLDLDKRLSQEKQTSDSDSVGVGDNCSTLGRRETCDHGKGKKSSLAELKGSMSRAAGRKITRIIGFSKKKTLADDLQTSSTEEEVPCCGYLNVLVNQGWKERWCRLKCNTLYFHKDHMDLRTHVNAIALQGCEVAPGFGPRHPFAFRILRNRQEVAILEASCSEDMGRWLGLLLVEMGSRVTPEALHYDYVDVETLTSIVSAGRNSFLYARSCQNQWPEPRVYDDVPYEKMQDEEPERPTGAQVKRHASSCSEKSHRVDPQVKVKRHASSANQYKYGKNRAEEDARRYLVEKEKLEKEKETIRTELIALRQEKRELKEAIRSSPGAKLKALEEAVATLEAQCRAKEERRIDLELKLVAVKERLQQSLAGGPALGLSVSSKPKSGETANKPQNSVPEQPLPVNCVSELRKRSPSIVASNQGRVLQKAKEWEMKKT
partner: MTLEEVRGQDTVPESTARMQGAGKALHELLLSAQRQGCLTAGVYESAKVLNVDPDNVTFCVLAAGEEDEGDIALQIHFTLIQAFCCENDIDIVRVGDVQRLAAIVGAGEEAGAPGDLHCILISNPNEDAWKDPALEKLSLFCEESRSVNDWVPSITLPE
B5: Tuftelin-interacting protein 11 (Homo sapiens), Q9UBB9 (parent)
chain: MSLSHLYRDGEGRIDDDDDERENFEITDWDLQNEFNPNRQRHWQTKEEATYGVWAERDSDDERPSFGGKRARDYSAPVNFISAGLKKGAAEEAELEDSDDEEKPVKQDDFPKDFGPRKLKTGGNFKPSQKGFAGGTKSFMDFGSWERHTKGIGQKLLQKMGYVPGRGLGKNAQGIINPIEAKQRKGKGAVGAYGSERTTQSMQDFPVVDSEEEAEEEFQKELSQWRKDPSGSKKKPKYSYKTVEELKAKGRISKKLTAPQKELSQVKVIDMTGREQKVYYSYSQISHKHNVPDDGLPLQSQQLPQSGKEAKAPGFALPELEHNLQLLIDLTEQEIIQNDRQLQYERDMVVNLFHELEKMTEVLDHEERVISNLSKVLEMVEECERRMQPDCSNPLTLDECARIFETLQDKYYEEYRMSDRVDLAVAIVYPLMKEYFKEWDPLKDCTYGTEIISKWKSLLENDQLLSHGGQDLSADAFHRLIWEVWMPFVRNIVTQWQPRNCDPMVDFLDSWVHIIPVWILDNILDQLIFPKLQKEVENWNPLTDTVPIHSWIHPWLPLMQARLEPLYSPIRSKLSSALQKWHPSDSSAKLILQPWKDVFTPGSWEAFMVKNIVPKLGMCLGELVINPHQQHMDAFYWVIDWEGMISVSSLVGLLEKHFFPKWLQVLCSWLSNSPNYEEITKWYLGWKSMFSDQVLAHPSVKDKFNEALDIMNRAVSSNVGAYMQPGARENIAYLTHTERRKDFQYEAMQERREAENMAQRGIGVAASSVPMNFKDLIETKAEEHNIVFMPVIGKRHEGKQLYTFGRIVIYIDRGVVFVQGEKTWVPTSLQSLIDMAK
partner: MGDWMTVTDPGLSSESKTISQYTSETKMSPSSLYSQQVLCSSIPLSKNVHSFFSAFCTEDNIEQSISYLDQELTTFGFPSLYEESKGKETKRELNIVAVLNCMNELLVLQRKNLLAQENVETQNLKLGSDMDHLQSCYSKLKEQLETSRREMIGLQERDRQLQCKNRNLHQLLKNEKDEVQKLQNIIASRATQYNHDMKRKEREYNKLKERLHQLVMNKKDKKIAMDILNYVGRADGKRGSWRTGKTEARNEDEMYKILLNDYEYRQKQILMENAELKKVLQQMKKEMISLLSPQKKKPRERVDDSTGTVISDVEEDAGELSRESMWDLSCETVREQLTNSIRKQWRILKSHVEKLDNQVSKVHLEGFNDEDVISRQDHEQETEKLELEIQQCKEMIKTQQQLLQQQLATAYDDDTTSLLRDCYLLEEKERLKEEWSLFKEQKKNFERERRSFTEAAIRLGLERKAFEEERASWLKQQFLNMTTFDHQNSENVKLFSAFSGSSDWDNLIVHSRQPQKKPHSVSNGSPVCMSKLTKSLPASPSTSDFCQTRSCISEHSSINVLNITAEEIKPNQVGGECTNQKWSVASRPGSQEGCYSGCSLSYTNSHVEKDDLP

Variants of: B1
Conditions: with tnmd_human TNMD

effect of a mutation on the interaction | Variant
with no effect | V322I

Variants of: B1
Conditions: with pspc_human SFTPC

effect of a mutation on the interaction | Variant
with no effect | S104T

Variants of: B1
Conditions: with sarco_human SLN

effect of a mutation on the interaction | Variant
with no effect | S104T

Variants of: B1
Conditions: with sc22a_human SEC22A

effect of a mutation on the interaction | Variant
with no effect | S104T

Variants of: B1
Conditions: with tx264_human TEX264, Q9Y6I9
Chain of tx264_human TEX264, Q9Y6I9 (Q9Y6I9 whole entry): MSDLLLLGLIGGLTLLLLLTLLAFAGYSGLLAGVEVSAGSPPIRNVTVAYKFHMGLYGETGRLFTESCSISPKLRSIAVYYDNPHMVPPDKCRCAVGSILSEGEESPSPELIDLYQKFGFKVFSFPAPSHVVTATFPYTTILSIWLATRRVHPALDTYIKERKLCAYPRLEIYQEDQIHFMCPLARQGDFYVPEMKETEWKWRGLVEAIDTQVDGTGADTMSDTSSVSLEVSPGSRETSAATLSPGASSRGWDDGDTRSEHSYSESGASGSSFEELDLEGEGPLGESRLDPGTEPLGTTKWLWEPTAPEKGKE

effect of a mutation on the interaction | Variant
with no effect | S104T

Variants of: B2
Conditions: with FBP2, O00757

effect of a mutation on the interaction | Variant
disrupting interaction strength | G260R

Variants of: B3
Conditions: with tekt4_human TEKT4, Q8WW24

effect of a mutation on the interaction | Variant
with no effect | K58M

Variants of: B4
Conditions: with ga45g_human GADD45G

effect of a mutation on the interaction | Variant
with no effect | S98N
with no effect | L406P

Variants of: B5
Conditions: with adip_human SSX2IP

effect of a mutation on the interaction | Variant
with no effect | S688L
with no effect | R8Q
